# pKd: −log10 of the molar value.
# Columns and labels:
# [1] = target: ovalbumin-anti-ovalbumin immune complexes (OVA ICs); experiment: cell-based or functional assay
# [2] = target: heat-aggregated IgG (HAGG); experiment: cell-based or functional assay
# [3] = target: heat-aggregated IgG (HAGG); experiment: flow cytometry: inhibition of HAGG binding to human FcγRIIb on IIA1.6 cells
# [4] = target: human IgG monomer (Sandoglobulin, Novartis) (human); experiment: BIAcore equilibrium binding, receptor injected over immobilised human IgG monomer (Sandoglobulin); single-binding site
# [5] = target: human IgG monomer (Sandoglobulin, Novartis) (human); experiment: BIAcore equilibrium binding over immobilised IgG (Sandoglobulin), rounded value of the discussion
# [6] = target: dimer-IgG (Wright et al., 1980); experiment: flow cytometry: inhibition of dimer-IgG binding to human neutrophils
# [7] = target: heat-aggregated IgG (HAGG); experiment: BIAcore equilibrium binding, receptor injected over immobilised HAGG; single-binding site
# [8] = target: heat-aggregated IgG (HAGG); experiment: BIAcore equilibrium binding over immobilised HAGG; two-binding site model, KD1
# [9] = target: heat-aggregated IgG (HAGG); experiment: BIAcore equilibrium binding over immobilised HAGG; two-binding site model, KD2
# [10] = target: dimer-IgG (Wright et al., 1980); experiment: flow cytometry, inhibition of dimer-IgG binding to human neutrophils (volunteer V1, Fcγ receptors m8) by purified rsFcγRIIa dimer
# [11] = target: human IgG monomer (Sandoglobulin, Novartis) (human); experiment: BIAcore equilibrium binding over immobilised human IgG monomer; two-binding site model, KD2
# [12] = target: human IgG monomer (Sandoglobulin, Novartis) (human); experiment: BIAcore equilibrium binding over immobilised human IgG monomer; two-binding site model, KD1
# [13] = target: human IgG monomer (Sandoglobulin, Novartis) (human); experiment: BIAcore equilibrium binding over immobilised IgG (Sandoglobulin)
# [14] = target: dimer-IgG (Wright et al., 1980); experiment: flow cytometry: inhibition of dimer-IgG binding to neutrophils from two different individuals
# [15] = target: heat-aggregated IgG (HAGG); experiment: BIAcore equilibrium binding over immobilised HAGG; KD1 against the monomer's KD
"IC50, TNF-α release from MC/9 cells induced by OVA ICs [1]","IC50, HAGG-induced CD62P upregulation on human platelets [2]",IC50 [3],pKd [4],pKd [5],IC50 [6],pKd [7],pKd [8],pKd [9],IC50 [10],pKd [11],pKd [12],fold greater avidity than the monomeric receptor [13],"fold potency against rsFcγRIIa monomer, HAGG-induced platelet activation [2]",IC50 [14],fold lesser KD than monomeric rsFcγRIIa [15],fold more potent than the monomer protein [3],fold more active than rsFcγRIIa monomer [6],Substance
17.7 µg/mL,20.9 µg/mL,2.08 µg/mL,,,,,,,,,,,,,,,,"rsFcγRIIa monomer (R&D Systems, Cat #1330-CD/CF) (from UniProt P12318 36-218) (receptor)"
,,,5.77,6.00,10.5 µg/mL,5.98,,,,,,,,,,,,"recombinant soluble FcγRIIa monomer (rsFcγRIIa monomer), expressed from pBAR426 in HEK 293E cells (from UniProt P12318 34-217) (receptor)"
,3.9 µg/mL,0.0039 µg/mL,,8.52,1.1 µg/mL,,8.56,7.00,0.9 µg/mL,7.00,8.49,300 fold,5 fold,0.9 to 1.1 µg/mL,300 fold,> 500 fold,10 fold,"recombinant soluble FcγRIIa dimer (rsFcγRIIa dimer), head to tail homodimer construct of FIG. 1 (from UniProt P12318 34-215) (receptor)"
